B1: M13-C06 Fab (Fab, V domains shown)
VH: EVQLLESGGGLVQPGGSLRLSCAASGFTFSIYRMQWVRQAPGKGLEWVSGISPSGGTTWYADSVKGRFTISRDNSKNTLYLQMNSLRAEDTAVYYCARWSGGSGYAFDIWGQGTMVTVSS
VL: DIQMTQSPLSLSASVGDRVTITCQASRDIRNYLNWYQQKPGKAPKLLIYDASSLQTGVPSRFGGSGSGTDFSFTIGSLQPEDIATYYCQQFDSLPHTFGQGTKLEIK
B2: M14-C03 Fab (Fab, V domains shown)
VH: EVQLLESGGGLVQPGGSLRLSCAASGFTFSKYMMSWVRQAPGKGLEWVSYISPSGGLTWYADSVKGRFTISRDNSKNTLYLQMNSLRAEDTAVYYCARDGARGYGMDVWGQGTTVTVSS
VL: DIQMTQSPATLSLSPGERATLSCRASQSVSSYLAWYQQKPGQAPRLLIYDASNRATGIPARFSGSGSGTDFTLTISSLEPEDFAVYYCQQRSNWPPEVTFGPGTKVDIK

Legend:
[1] = biological target: murine IGF-1R(1-903)-Fc (mouse; human) (UniProt Q60751); assay: SPR
[2] = biological target: murine IGF-1R(1-903)-Fc (mouse; human) (UniProt Q60751); assay: SPR, Fab over captured mIGF-1R-Fc
[3] = biological target: All other mutant IGF-1R constructs (SD001-SD019 other than SD015); assay: SPR, Fab over captured mutant receptor-Fc
[4] = biological target: murine IGF-1R(1-903)-Fc (mouse; human) (UniProt Q60751); assay: SPR, Fab over captured mIGF-1R-Fc, 3 hr dissociation
[5] = biological target: murine IGF-1R(1-903)-Fc (mouse; human) (UniProt Q60751); assay: SPR, Fab over mIGF-1R-Fc captured by anti-Fc, apparent affinity

Binder	fold decrease in binding against human IGF-1R Fc [1] [fold]	kon [2] [M⁻¹ s⁻¹]	Kd [3] [nM]	koff [4] [s⁻¹]	Kd [5] [nM]
B1	100	471	1	4.2e-05	89.1
B2	–	–	5	–	–
